Measurements reported in article PMC4321881.

Target: nascent chain-containing 60S ribosomal subunit (60S-RNC) (UniProt P35268)

Listerin, sequence (O94822 whole entry): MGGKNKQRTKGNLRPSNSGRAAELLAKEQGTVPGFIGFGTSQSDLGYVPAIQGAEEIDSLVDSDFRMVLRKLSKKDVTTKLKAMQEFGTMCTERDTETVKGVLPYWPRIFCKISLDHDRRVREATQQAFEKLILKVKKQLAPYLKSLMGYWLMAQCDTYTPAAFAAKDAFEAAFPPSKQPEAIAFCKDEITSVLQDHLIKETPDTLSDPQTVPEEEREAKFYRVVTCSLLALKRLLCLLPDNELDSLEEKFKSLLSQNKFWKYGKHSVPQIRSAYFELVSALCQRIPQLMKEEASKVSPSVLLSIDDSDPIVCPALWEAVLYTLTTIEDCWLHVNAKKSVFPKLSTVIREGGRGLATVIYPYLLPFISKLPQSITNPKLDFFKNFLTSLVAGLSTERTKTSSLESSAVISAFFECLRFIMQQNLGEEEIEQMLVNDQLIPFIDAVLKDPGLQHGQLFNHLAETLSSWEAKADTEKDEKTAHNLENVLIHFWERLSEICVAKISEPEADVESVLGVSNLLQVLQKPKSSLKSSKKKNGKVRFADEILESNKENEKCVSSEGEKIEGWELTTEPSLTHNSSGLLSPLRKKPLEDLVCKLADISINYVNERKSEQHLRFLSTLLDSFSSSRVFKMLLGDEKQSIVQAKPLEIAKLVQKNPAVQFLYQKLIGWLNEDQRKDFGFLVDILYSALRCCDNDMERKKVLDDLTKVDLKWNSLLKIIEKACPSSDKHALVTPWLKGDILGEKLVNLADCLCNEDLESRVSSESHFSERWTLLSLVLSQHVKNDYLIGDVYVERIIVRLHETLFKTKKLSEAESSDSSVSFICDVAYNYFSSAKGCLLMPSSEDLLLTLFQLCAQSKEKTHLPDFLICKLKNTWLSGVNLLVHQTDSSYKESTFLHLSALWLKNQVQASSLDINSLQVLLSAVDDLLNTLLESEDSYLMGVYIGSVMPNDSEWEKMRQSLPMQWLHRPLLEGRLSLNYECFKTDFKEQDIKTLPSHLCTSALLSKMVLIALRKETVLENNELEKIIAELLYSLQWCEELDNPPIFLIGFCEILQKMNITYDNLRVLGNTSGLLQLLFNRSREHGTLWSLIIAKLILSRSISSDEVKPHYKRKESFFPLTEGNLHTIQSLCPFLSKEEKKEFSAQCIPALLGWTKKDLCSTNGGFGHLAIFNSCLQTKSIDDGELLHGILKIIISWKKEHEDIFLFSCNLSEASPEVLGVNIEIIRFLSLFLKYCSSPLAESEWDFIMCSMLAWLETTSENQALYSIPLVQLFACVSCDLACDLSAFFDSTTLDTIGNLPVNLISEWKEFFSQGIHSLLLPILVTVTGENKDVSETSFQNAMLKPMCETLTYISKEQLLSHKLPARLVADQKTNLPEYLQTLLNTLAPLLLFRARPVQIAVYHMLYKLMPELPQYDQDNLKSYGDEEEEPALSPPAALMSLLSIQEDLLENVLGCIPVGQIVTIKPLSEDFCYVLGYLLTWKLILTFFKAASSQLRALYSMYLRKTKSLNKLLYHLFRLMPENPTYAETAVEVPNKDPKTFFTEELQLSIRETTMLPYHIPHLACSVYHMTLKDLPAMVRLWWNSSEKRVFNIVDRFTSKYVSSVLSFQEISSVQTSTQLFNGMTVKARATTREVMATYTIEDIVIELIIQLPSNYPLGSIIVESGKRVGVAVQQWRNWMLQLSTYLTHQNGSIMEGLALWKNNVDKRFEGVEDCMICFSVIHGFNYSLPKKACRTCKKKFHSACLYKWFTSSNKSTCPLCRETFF

poly-ubiquitination of the nascent chain-tRNA, purified NEMF titrated into reactions with 5 nM 80S-RNCs and 1.2 nM Listerin, relative to no NEMF: 3 to 5 fold
Substance: Listerin (from UniProt O94822 1-1766) (enzyme)
